Laboratory results published in patent US20170174733A1.
Like-named read-outs stand apart in the source and are kept apart here.

Key:
[1] = target: human VEGF (human) (UniProt P15692); test: cell-based or functional assay
[2] = target: mouse VEGF (mouse) (UniProt Q00731); test: cell-based or functional assay
[3] = target: rat VEGF (rat) (UniProt P16612); test: cell-based or functional assay
[4] = target: mouse VEGF (mouse) (UniProt Q00731); test: cell-based or functional assay; remark: listed apart in the source
[5] = target: rat VEGF (rat) (UniProt P16612); test: cell-based or functional assay; remark: listed apart in the source
[6] = target: biotinylated VEGF165 (UniProt P15692); test: competition binding ELISA: blocks biotinylated VEGF165 binding to coated VEGFR1-Fc
[7] = target: biotinylated VEGF165 (UniProt P15692); test: competition binding ELISA: biotinylated VEGF165 premixed with the binder, then on coated VEGFR1-Fc (blocked partner), OD 450 nm
[8] = target: human VEGF (human) (UniProt P15692); test: cell-based or functional assay; remark: listed apart in the source
[9] = target: LRP6 on HEK293S cells (human) (UniProt O75581); test: cell-based or functional assay
Chain of LRP6 on HEK293S cells (human) (O75581 20-1613): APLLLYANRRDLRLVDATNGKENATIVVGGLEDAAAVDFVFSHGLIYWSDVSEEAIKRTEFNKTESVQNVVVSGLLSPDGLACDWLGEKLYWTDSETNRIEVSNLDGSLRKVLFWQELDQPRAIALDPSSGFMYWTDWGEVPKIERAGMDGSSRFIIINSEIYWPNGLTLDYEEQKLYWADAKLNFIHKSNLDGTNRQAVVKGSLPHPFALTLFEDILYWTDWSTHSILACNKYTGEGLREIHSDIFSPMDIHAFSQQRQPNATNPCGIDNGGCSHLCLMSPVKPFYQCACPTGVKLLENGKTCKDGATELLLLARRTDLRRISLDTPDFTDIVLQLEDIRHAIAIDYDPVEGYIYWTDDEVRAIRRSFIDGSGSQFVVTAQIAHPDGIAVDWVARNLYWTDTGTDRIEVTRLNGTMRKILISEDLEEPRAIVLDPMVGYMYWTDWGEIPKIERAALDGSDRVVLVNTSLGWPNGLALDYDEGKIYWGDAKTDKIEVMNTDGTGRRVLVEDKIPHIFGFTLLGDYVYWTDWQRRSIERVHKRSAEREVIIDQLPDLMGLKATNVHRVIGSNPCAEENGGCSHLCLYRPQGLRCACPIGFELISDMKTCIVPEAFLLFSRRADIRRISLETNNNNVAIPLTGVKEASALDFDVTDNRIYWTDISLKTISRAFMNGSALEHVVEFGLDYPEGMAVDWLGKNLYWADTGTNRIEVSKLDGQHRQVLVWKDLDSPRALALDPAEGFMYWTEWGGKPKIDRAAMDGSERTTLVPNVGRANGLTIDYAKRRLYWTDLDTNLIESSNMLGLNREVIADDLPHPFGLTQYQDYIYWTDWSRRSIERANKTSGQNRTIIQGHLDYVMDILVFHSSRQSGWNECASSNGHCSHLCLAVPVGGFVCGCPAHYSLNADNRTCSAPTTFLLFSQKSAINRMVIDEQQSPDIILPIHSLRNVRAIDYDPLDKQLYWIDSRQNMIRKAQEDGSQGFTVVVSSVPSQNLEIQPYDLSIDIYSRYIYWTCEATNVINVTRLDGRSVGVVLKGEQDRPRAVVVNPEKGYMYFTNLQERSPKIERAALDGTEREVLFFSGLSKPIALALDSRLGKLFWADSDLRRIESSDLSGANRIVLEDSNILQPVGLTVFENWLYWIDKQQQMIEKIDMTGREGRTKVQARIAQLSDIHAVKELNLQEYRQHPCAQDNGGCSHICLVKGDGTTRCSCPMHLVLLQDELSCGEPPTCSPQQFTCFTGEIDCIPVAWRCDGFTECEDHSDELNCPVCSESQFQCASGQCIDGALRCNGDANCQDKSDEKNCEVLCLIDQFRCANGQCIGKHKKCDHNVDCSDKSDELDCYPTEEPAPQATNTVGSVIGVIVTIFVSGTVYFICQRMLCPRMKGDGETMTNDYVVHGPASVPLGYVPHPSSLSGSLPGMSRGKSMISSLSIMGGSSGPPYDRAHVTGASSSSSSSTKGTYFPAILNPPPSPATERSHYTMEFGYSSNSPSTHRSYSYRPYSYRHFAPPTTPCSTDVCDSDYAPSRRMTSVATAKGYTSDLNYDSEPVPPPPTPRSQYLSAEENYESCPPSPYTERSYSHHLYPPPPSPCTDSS

Chain of human VEGF (human) (P15692 other isoform, or with tags, fused parts or gaps limits assumed): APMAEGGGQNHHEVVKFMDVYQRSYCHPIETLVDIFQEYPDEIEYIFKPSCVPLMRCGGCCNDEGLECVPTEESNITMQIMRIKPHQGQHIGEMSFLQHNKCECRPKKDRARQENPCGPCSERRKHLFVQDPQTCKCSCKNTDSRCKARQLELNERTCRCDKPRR
Chain of biotinylated VEGF165 (P15692 other isoform, or with tags, fused parts or gaps limits assumed): as above
Chain of rat VEGF (rat) (P16612 other isoform, or with tags, fused parts or gaps limits assumed): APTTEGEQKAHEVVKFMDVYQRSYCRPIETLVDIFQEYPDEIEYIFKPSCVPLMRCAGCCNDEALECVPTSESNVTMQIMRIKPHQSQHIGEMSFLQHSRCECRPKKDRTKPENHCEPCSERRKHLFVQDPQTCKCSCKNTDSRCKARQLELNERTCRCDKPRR
Chain of mouse VEGF (mouse) (Q00731 other isoform, or with tags, fused parts or gaps limits assumed): as the sequence (P16612 other isoform, or with tags, fused parts or gaps limits assumed) above, with A10S, V14I, V75I counted along it

Substance	Inhibitory Activity (IC50, nM) against hVEGF in cell-based assays [1] [nM]	Inhibitory activity (IC50, nM) against VEGF in cell-based assays [1] [nM]	Inhibitory activity (IC50, nM) against VEGF in cell-based assays [2] [nM]	Inhibitory activity (IC50, nM) against VEGF in cell-based assays [3] [nM]	Inhibitory activity (IC50, nM) against VEGF in cell-based assays [4] [nM]	Inhibitory activity (IC50, nM) against VEGF in cell-based assays [5] [nM]	IC50 [6] [nM]	IC50 [7] [nM]	Inhibitory activity (IC50, nM) against VEGF in cell-based assays [8] [nM]	IC50, inhibition of Wnt1 signaling (luciferase reporter, HEK293S cells transfected by WNT1) [9] [nM]
G6 anti-VEGF antibody	0.14	0.21	0.12	0.13	0.19	0.078	0.25	0.2	–	–
Lucentis (Fab)	0.68	–	–	–	–	–	–	–	0.63	–
anti-LRP6 inhibitory antibody YW210.09	–	–	–	–	–	–	–	–	–	28
